Data from the nanobody polyreactivity screen of Harvey et al. (2022).

Assay: yeast display, Sf9 membrane polyspecificity reagent, FACS + sequencing; frameworks hold sequencing errors
In short: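 In a synthetic yeast display library (Saccharomyces cerevisiae BJ5465), nanobody expression was induced with galactose for 36–48 hours. FACS gates were set low and high (top ~1%) using anti-HA fluorescence for expression and streptavidin fluorescence for binding of the Sf9 membrane reagent. Each polyreactivity label is drawn from the gate of origin.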

Sequence	polyreactivity (PSR sort gate)
QVQLVESGGGLVQAGGSLRLSCAASGSIFYYNARGGYRQAPGKERELVATIRTSGGSTYYADSVKGRFTISRDNAMNTVYVQLNSLKPEDTAVYYCAARDLRKLYSRYPYYYWGQGTQVTVSS	high polyreactivity
QVQLVESGGGLVQAGGILSLSCAASGRTFCYYTMGWYRQAPGKERELVAAISSGGRTNYADSVKGRFTNSRDNAKITVYLQMISLKPEDTAVYYGATSLYYKYVERDYWGHGTQVTVSS	high polyreactivity
QVQLVESGGGLVQAGGSLRLISAASGSSFSSYAMGWYRQAPGKERDLVAAISWRGGSTYYADSVKGRFTISRDNAKNTVYLQMNSLKTEDTAVYFCAKLVRGVGTEMYYWGQGTQVTVSS	high polyreactivity
QFQLVESGGGLVQAGGSLRLSCAASGSTFYTTDMGWYRQAPGKERELVASITSAGNTNYADSVKGRFTISRDNAKNSVYLQMNSLKPEDTAVYYYYYYQYDYWGQGTQVTVSS	low polyreactivity
QVQLVESGGGLVQAGGSLRLSCAASGRTFKYNAMGWYRQAPGNERELVAAISRSGGSTYYADSVKGRFTISRDNAKNTVYLQMNSLKPEDTAVYYCNAEYLWIRHIAEDYWGQGTQVTVSS	low polyreactivity
QGQRVESGGGLVQAGGSLRLSCAASGRIFRGYDMGWYRQSPGKERELVAAISGSGGSTYYADSVKGRFTISRDYAKNSVYLQMNSLQPEDTAVYYCAADQQSTGDWAGDYWGQGTQVTVSS	low polyreactivity
QVQLVESGGGLVQAGGSLRLSCAASGITFRGYAMGWYRQAPGKERELVAAINSGGSTNYADSVKGRFTISRDNAKNTVYLQMNSLKPEDTAVYYCAAGWYYYWGNYLSYAYDYWGQGTQVTVSS	high polyreactivity
QVQLVESGGGLVQAGGSLRLSCAASGLTFRDNAMGWYRQAPGKERELVAAISTNGGSTYYADSVKGRFTISRDNAKNTVYLQMNSLKPEDTAVYYCAKSFLTQYPQVDSDYWGQGTQVTVSS	low polyreactivity
QVHLVESGGGLVQAGGSLRLSCAASGRIRYYAMGWYRQAPGKERELVAAITSSGGSTYYADSVKGRFTISRDNAKNTVYLQMNSLKPEVTAVYYCIAVASLSGDYWGQGTQVTVSS	high polyreactivity
QVQLVESGGGLVQAGGSLRLRCAASGRIFYSNTMGWYRQAPGKERELVADITSGGSTKYADSVKGRFTISRDNAKNTVYLQMISLKPEDTAVYYCAAGERYDWWYGGFQGYDYWGQGTQVTVSS	high polyreactivity
QVQLVESGGGLVQAGGSLRLSCAASGSIFKGYSMGWYRQAPGKERELVAAITIDGSTYYADSVKGRFTISRDNAKNTVYLQMNSLKPEDTAVYYCAAVYLWYGSWPLHFAAYDYWGQGTQVTVSS	low polyreactivity
QVQLVESGGCLVQAGGSLRLSCAASGFTFVGYAMGWYRQAPGKERELVAAITSSGGSTYYADSVKGRFTISRDNAKNTVYLQMNSLKPEDTAVYYCAAPAPVLSTQKRFDSWGQGTQVTVSS	low polyreactivity
QVQLVESGVGLDQAGGSLRLSCAASGSTFASYAMGWYRQAPGKERELVAAITNGGSTNYADSVKGRFTISRDNAKNTVYLLMNSLKPEDTAVYYCAAYDGFPRRYDYWGQGTQVTVSS	low polyreactivity
QVQLVESGGGLVQAGGSLRLSCAASGFTFQYYPMGWYRQAPGKERELVAAISWSGGSTNYADSVKGRFTISRDNAKNTVYLQMNSLKPEDTAVYYCNAVHYYVEYDYWGQGTQVTVSS	high polyreactivity
QVQLVESGGGLVQAGGSLRLSCAASGSIFTSNAMGWYRQAPGKERELVAAISRRGSNTFYADSVKGRFTISRDNAKNTVYLQMNSLKPEDTAVYYCNTLVNAISYEYYYWGQGTQVNVSS	high polyreactivity
QVQLVESGGGLVQAGGSLRLSCAASGRTFYDYTMGWYRQAPGKERELVAAISQRGGSTYYADSVKGRFTISRDNAKNTVYLQMNSLKPEDTAVYYCAARTSYSGNKYYYWGQGTQVTVSS	high polyreactivity

Sequence	polyreactivity (PSR sort gate)
QVQLVESGGGLVQAGGSLRLSCAASGRIFNWYAMGWYRQEPGKERELVAAISTDGSTYYADSVKGRFTISRDNAKNTVYLQMNSLKPEDTAVYYCAAVPGYTHLWGGPFDYWGQGTQVTVSS	low polyreactivity
QVQLVESGGGLVQAGGSLRLSCAASGSTFYYYAMGWYRQAPGKERELVATISSGSSTNYADSVKGRFTISRDNAKNTVYLQMNSLIPEDTAVYYCAADRWYINLYIDATISYDYWGQGTQVTVSS	low polyreactivity
QVQLVESGGGLVQAGGSLRLSCAASGSIFSVNTMGWNRKAPGKERELVATIRTGDSTNYADSVKGRFTISRDNAKNSVYLQMNSLKPEDTAVYYCAAEWSSMNFDYWGQGTQVNVSS	low polyreactivity
QDQLVESGGGLVQAGGSLRLSCAASGIIFEYYAMGWYRQAPGKEREFVASITSSDGSTYYADSVKGRFTISRDNAKNTVYLQMNILKPEDTAVYYCAAAGDYVVPISSTAGFGGDYWGQGTQVTVSS	low polyreactivity
QVQLVESGGGLVQAGGRLRLSCAASGFTFYRYPMGWYRQAPGTERELVAAITWSGGSTYYADSVKGRFTISRDTAMNTVYLQMNSLKPEDTAVYYCAADIYDGGFDYWGQGTQVTVSS	low polyreactivity
QVQLEESGGGLVQAGGSLRLSCAASGSTYACYYMGWYIQAPGTEREFVAAIDYGGGSTYADSVQGRFTISRDNAKITVYLQMNSLKPEDTAVYYCYADNWVYLYVYWGQGTQVTVSS	low polyreactivity
QVQVVESGGGLVQAGGSLRLSCAASGFTFAWYTMGWYRQAPGKERELVAAISTGGNTYYADSVKGRFTISRDNAKNTVYLQMNSLKPEDTAVYYCATRPRGQTYNYWGQVTQVTVSS	high polyreactivity
QVQLVESGGGLVQAGGSLRLSCASSGSTFEANAMGWSRQAPGKDRELVAAISSRGGSTYYADSVKGRFTISRDNGKNTVYFQRNSLKPEDTAVYYCAALLRSGGEYDYWGQGTQVTVSS	high polyreactivity
QVQLVETGGGLVQAGGSLRLSGAASGRIFWVNAMGWYRQAPGKERELVAVISRGGSTTYADSVKGRFTISRDNAKNTVYLKMNSLKPEDTAVYYCAADAYRHAFLYYGYDYLGQGTQVTVSS	low polyreactivity
QVQLVESGGGLVQAGGSLRLSCAASGSTFRGYAMGWYRQAPGKERELVAAISRSGGSTYYADSVKGRFTISRDNAKNTVYLQMNSLKPEDTAVYYCNARSSKRSSRGYDYWGQGTQVTVSS	high polyreactivity
QVQLVESGGGLVQAGGSLRLSCAASGYTFRSYMGWYRQAPGKEREFVADISTSVTNTYYADSVKGRFTISRDNAKNTVYLQMNSLKPEDTAVYYCAAGVQSVYNGEPGIILEFDYWGQGTQVTVSS	low polyreactivity
QVQLVESGGGLVQAGGSLRLSCAASGIIFYPNAMGWYRQAPGKERELVAAITGSGGSTYYADSVKGRFTISRDNAKNTVYLQMNSLKPEDTAVYYCNARVYWYYPMDYWGQGTQVTVSS	low polyreactivity
QVQLVESGGGLVQAGGSLRLSCAASGHIFFYYTMGWYRQAPGKERELVAGITIGGSTNYADSVKGRFTISRDNAKNTVYLQMNSLKPEDTAVYYCNVVNYVYIYSYWEYYYWGQGTQVTVSS	low polyreactivity
QVQLVESGGGLVQAGGSLRLSCAASGSIFDYNAMGWYRQAPGKERELVAAISSGGSTNYADSVKGRFTISRDNAKNTVYLQMNSLKPEDTAVYYCNTGLYWLGYWPDDYWGQGTQVTVSS	low polyreactivity
QVQLVESGRGLVQAGGSLRLSCAASGNTLLKNAMGWYRQAPGKERELVAAISSSGGRTYYADSVKGRFTISRDNAKNTVYLQMNSLKQEDTAVYYCAARYPSGYYYWGQGTQVTVSS	high polyreactivity
QVQLVESGGGLDQAGGSLRLSCAASGRIFTYYTMGWYRQAPGKERELVATIRWSGGRTYYADSVKGRFTISRDNAKNTVYLQMNSLKPEDTAVYYCAANTYWRHYTPYTYGYWGQGTQVTVSS	high polyreactivity
